The source of these data is the supplement of paper PMC10567573.

This data set is described as follows: protein stability index of a GFP-peptide fusion (GPS, HEK-293T) (PSI 1-6); higher = more stable. The conditions noted are these: c terminus: a fixed tail appended.

± gives the standard deviation.
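Note: 24-mer peptide tiles fused after GFP, lentivirally expressed, FACS-sorted into six equal bins by GFP/DsRed ratio, decoded by Illumina sequencing, PSI is the read-weighted mean bin number.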

Take LIGDLIGHSSSVEMFLYFEDHGLV [WDR41]: the protein stability index is 2.57 ± 0.51 (treatment: DMSO) and 2.83 ± 0.81 (treatment: MLN4924 1 uM, 8 h).

The sequence LIHQHEKVIYLDDDVIVQGDIQEL [GLT8D2] showed a protein stability index (treatment: DMSO) of 3.6 ± 0.26 and a protein stability index (treatment: MLN4924 1 uM, 8 h) of 3.59 ± 0.22.

LKERFAFLFNSELLSDVRFVLGKG [BTBD1]: the protein stability index by setting is: (treatment: DMSO) 2.53 ± 0.23; (treatment: MLN4924 1 uM, 8 h) 2.64 ± 0.41.

Consider LKISPVTLKEAYVQKLVKVCTDTD [TENT5C], for which the protein stability index was found to be 2.94 ± 0.16 (treatment: DMSO) and 2.91 ± 0.14 (treatment: MLN4924 1 uM, 8 h).

Take LKNNETLVQHGVKPQEIVQVEIFS [IQUB]: the protein stability index runs as follows: (treatment: DMSO) 2.82 ± 0.54; (treatment: MLN4924 1 uM, 8 h) 2.98 ± 0.7.

Consider LLAPGEQSLPCTERKPAATARLSR [KISS1], for which the protein stability index by setting is: (treatment: DMSO) 4.46 ± 0.37; (treatment: MLN4924 1 uM, 8 h) 4.72 ± 0.18.

For the sequence LLASVPSNPNGNGGFMGYSAENIP [CRY1], the protein stability index runs as follows: (treatment: DMSO) 3.52 ± 0.45; (treatment: MLN4924 1 uM, 8 h) 3.41 ± 0.23.

As for LLDDGQQASPYHPGSCGAGAPSPG [ELF3], the protein stability index runs as follows: (treatment: DMSO) 4.71 ± 0.1; (treatment: MLN4924 1 uM, 8 h) 4.57 ± 0.39.

With LLEGQDAKMAGIGIREASSGGGGS [KRT15], the protein stability index (treatment: DMSO) was 5.09 ± 0.14 and the protein stability index (treatment: MLN4924 1 uM, 8 h) came out at 4.87 ± 0.2.

Consider LLFVRGAGNCPECGTPLRKSNFRV [MNAT1], for which the protein stability index is, setting by setting: (treatment: DMSO) 2.2 ± 0.19; (treatment: MLN4924 1 uM, 8 h) 2.6 ± 0.32.

In the case of LLISSCDWMAAMFGGPFVESSTRE [RHOBTB2], the protein stability index by setting is: (treatment: DMSO) 2.68 ± 0.52; (treatment: MLN4924 1 uM, 8 h) 2.37 ± 0.48.

For LLLDCGAEVNAVDNEGNSALHIIV [FEM1B], the protein stability index was determined as 2.39 ± 0.45 (treatment: DMSO) and 2.24 ± 0.42 (treatment: MLN4924 1 uM, 8 h).

The sequence LLLHRGAGKEAMTSDGYTALHLAA [RIPK4] came in with a protein stability index (treatment: DMSO) of 2.33 ± 0.25 and a protein stability index (treatment: MLN4924 1 uM, 8 h) of 2.22 ± 0.48.

With LLRSPPPPSARHRAHPPQRPASSG [KCNA3], the protein stability index amounted to 4.42 ± 0.18 (treatment: DMSO) and 4.62 ± 0.33 (treatment: MLN4924 1 uM, 8 h).

On to LLSVDAFAAPSPATTASPAKVDSS [SNAP91], for which the protein stability index is 4.86 ± 0.21 (treatment: DMSO) and 4.87 ± 0.07 (treatment: MLN4924 1 uM, 8 h).

In turn, LLTGETEADPEMIKRAEDYGPVEV [CLPTM1] yielded a protein stability index (treatment: DMSO) of 5.02 ± 0.3 and a protein stability index (treatment: MLN4924 1 uM, 8 h) of 5.14 ± 0.11.

Regarding LLTWTEPPVRPAGYLLSFHTPGGQ [TNXB], the protein stability index was 2.42 ± 0.23 (treatment: DMSO) and 2.64 ± 0.29 (treatment: MLN4924 1 uM, 8 h).

Take LMCFDPDTDKWIQKAPMTTVRGLH [KLHL13]: the protein stability index came out at 2.57 ± 0.18 (treatment: DMSO) and 2.64 ± 0.23 (treatment: MLN4924 1 uM, 8 h).

Take LMKHQTNISELKRTFLETSTDTAV [EPB41L3]: the protein stability index amounted to 3.68 ± 0.79 (treatment: DMSO) and 3.92 ± 0.38 (treatment: MLN4924 1 uM, 8 h).

In the case of LMLAGMGLHYIAFRKVKQMHLNFM [DNAJC4], the protein stability index runs as follows: (treatment: DMSO) 2.45 ± 0.82; (treatment: MLN4924 1 uM, 8 h) 2.41 ± 0.33.

LMSDLRRKRTAHERAKELYSSGEF [INTS4]: the protein stability index came to 3.54 ± 0.19 (treatment: DMSO) and 3.65 ± 0.1 (treatment: MLN4924 1 uM, 8 h).

For LMSGALAVNQKIDRESLCGASTSC [PCDHGC5], the protein stability index (treatment: DMSO) turned out to be 3.67 ± 0.4 and the protein stability index (treatment: MLN4924 1 uM, 8 h) worked out at 3.6 ± 0.095.

As for LNRPGPAPLSSRKHVLYVEHRHLN [TCF25], the protein stability index by setting is: (treatment: DMSO) 3.14 ± 0.28; (treatment: MLN4924 1 uM, 8 h) 2.8 ± 0.15.

Consider LPACEFEMGGSEGIVESIQIMKEG [NETO1], for which the protein stability index by setting is: (treatment: DMSO) 4.92 ± 0.26; (treatment: MLN4924 1 uM, 8 h) 4.74 ± 0.3.

LPCDLPKVVSRAENLSVPVIGALL [LPCAT4]: the protein stability index is, setting by setting: (treatment: DMSO) 2.29 ± 0.37; (treatment: MLN4924 1 uM, 8 h) 2.27 ± 0.31.

Regarding LPDVEPAAFLALLRFLYSDEVQIG [BTBD1], the protein stability index stood at 2.16 ± 0.43 (treatment: DMSO) and 2.28 ± 0.28 (treatment: MLN4924 1 uM, 8 h).

LPDVSLGRYAYVRGGGDPWTNGSG [MCOLN1]: the protein stability index reads like this: (treatment: DMSO) 2.51 ± 0.43; (treatment: MLN4924 1 uM, 8 h) 2.87 ± 0.22.

Sequence LPHPKSMLQATAEANNLAAAASAK [ATL3] gave a protein stability index (treatment: DMSO) of 4.86 ± 0.27 and a protein stability index (treatment: MLN4924 1 uM, 8 h) of 5.07 ± 0.19.

Take LPKEASDGTGASQEPPTTDSQEAQ [TOR1AIP2]: the protein stability index (treatment: DMSO) was determined as 5.65 ± 0.29 and the protein stability index (treatment: MLN4924 1 uM, 8 h) came to 5.54 ± 0.2.

Consider LPSAQDINRLVGLQNTYMGYLDYR [GLT8D2], for which the protein stability index (treatment: DMSO) is 2.52 ± 0.28 and the protein stability index (treatment: MLN4924 1 uM, 8 h) was found to be 2.52 ± 0.38.

Take LPSWAELLRPKYRAPQGCSGVDEC [PBXIP1]: the protein stability index came out at 2.83 ± 0.11 (treatment: DMSO) and 2.69 ± 0.46 (treatment: MLN4924 1 uM, 8 h).

Consider LQHLIGLSNLTHVLYPVPLESYED [PRAME], for which the protein stability index runs as follows: (treatment: DMSO) 2.3 ± 0.24; (treatment: MLN4924 1 uM, 8 h) 2.54 ± 0.12.

Take LQLSEFLCEEFRNRNQRIVQLIQD [CPN1]: the protein stability index is 2.56 ± 0.25 (treatment: DMSO) and 2.71 ± 0.39 (treatment: MLN4924 1 uM, 8 h).

Consider LQRLSHSGSRVRVGFRLCNSTGGD [SCNN1D], for which the protein stability index by setting is: (treatment: DMSO) 3.14 ± 0.22; (treatment: MLN4924 1 uM, 8 h) 3.11 ± 0.18.

LRCLDRDEPSKPTLALEYTYGRRA [DYNC2LI1]: the protein stability index came to 3.45 ± 0.14 (treatment: DMSO) and 3.41 ± 0.32 (treatment: MLN4924 1 uM, 8 h).

As for LRGGRGGSGGTRGPPSRGGHMDDG [RBMX], the protein stability index turned out to be 5.26 ± 0.19 (treatment: DMSO) and 5.3 ± 0.34 (treatment: MLN4924 1 uM, 8 h).
